According to patent WO2009138494A2 (dated 2009):

What was measured:
[1] = target: T1, recombinant human TLR3, R&D Systems cat no: 1487-TR (human, UniProt O15455 27-700, limits assumed); assay: ELISA: TLR coated at 2 ug/ml, periplasmic extract of the clone, anti-VHH detection, OD against no-Nanobody control
T1 construct: Bought protein, coated on ELISA plates; also called hTLR3

[2] = target: T2, recombinant murine TLR3, R&D Systems cat no: 3005-TR (murine, UniProt Q99MB1 26-705, limits assumed); assay: as above
T2 construct: Bought protein, coated on ELISA plates; also called mTLR3
T2 sequence (Q99MB1 26-705 limits assumed): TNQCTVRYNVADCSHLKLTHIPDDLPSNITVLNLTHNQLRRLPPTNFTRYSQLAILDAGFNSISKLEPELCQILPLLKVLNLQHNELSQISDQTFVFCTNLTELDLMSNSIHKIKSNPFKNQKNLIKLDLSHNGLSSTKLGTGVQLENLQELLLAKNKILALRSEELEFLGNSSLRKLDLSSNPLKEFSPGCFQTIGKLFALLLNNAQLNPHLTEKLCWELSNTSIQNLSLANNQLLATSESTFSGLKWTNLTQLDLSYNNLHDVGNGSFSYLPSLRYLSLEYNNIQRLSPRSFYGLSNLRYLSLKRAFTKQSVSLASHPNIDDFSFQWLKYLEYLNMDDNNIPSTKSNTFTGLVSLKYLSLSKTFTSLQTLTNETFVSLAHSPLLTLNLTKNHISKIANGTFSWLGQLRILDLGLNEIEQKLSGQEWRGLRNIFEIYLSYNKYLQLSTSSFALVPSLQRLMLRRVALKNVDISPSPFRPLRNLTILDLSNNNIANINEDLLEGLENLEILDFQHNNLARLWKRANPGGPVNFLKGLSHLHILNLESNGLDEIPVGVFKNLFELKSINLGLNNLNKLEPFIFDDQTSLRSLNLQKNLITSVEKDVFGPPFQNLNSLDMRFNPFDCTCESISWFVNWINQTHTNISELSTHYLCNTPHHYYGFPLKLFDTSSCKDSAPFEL

binding result [1] | binding result [2] | Binder
binds |  | 132-F7 (VHH, not shown: C-terminal c-myc tag and (His)6 tag coded by the vector) VHH: EVQLVESGGGLVQAGGSLRLSCAASGNTFSFNVMGWYRQAPGKQRELVTIIDNGGTTNYADSVKGRFTISRDNAKNTVYLQMNSLKPEDTARYYCHARRGGTLYILGDSNYWGQGTQVTVSS
binds |  | 132-G9 (VHH, not shown: C-terminal c-myc tag and (His)6 tag coded by the vector) VHH: EVQLVESGGGLVQTGGSLRLSCAASGNTFNFNVMGWYRQAPGKQRELVTIIDNSGTTNYADSVKGRFTISRDNAKNTVYLQMNSLKPEDTARYFCHARRGGSLYTLGDSNYWGQGTQVTVSS
binds |  | 132-B8 (VHH, not shown: C-terminal c-myc tag and (His)6 tag coded by the vector) VHH: AVQLVESGGGLVQAGGSLRLSCAASGNTFSINVMGWYRQAPGKQRDLVTIIDDGGTTNYADSVKGRFTISRDNAKNTVYLQMNSLKPEDTARYFCHARRGGNAYTLGESNYWGQGTQVTVSS
binds |  | 132-F12 (VHH, not shown: C-terminal c-myc tag and (His)6 tag coded by the vector) VHH: EVQLVESGGGLVQAGGSLRLSCAASGNTFSFNVMGWYRQAPGNQRELVTIIDNSGTTNYADSVKGRFTVSRDNAKNTVYLQMNSLKPEDTARYYCHARRGGGLYILGESNYWGQGTQVTVSS
binds |  | 132-B12 (VHH, not shown: C-terminal c-myc tag and (His)6 tag coded by the vector) VHH: EVQLVESGGGLVQAGGSLRLSCAASGNTFSINVMGWYRQAPGKQRELVTIMDDSGTTNYAGSVKGRFTISRDNAKNTVYLQMSSLKPEDTARYFCHARRGGTAYTLGDSNYWGQGTQVTVSS
binds |  | 132-E10 (VHH, not shown: C-terminal c-myc tag and (His)6 tag coded by the vector) VHH: EVQLVESGGGLVQAGGSLRLSCAASGNTFSINVMGWYRQAPGKQRELVTIIDNGGTTSYADSVKGRFTISRDNAKNTVYLQMNSLKPEDTARYTCHARRGGTLYTLGDSNYWGQGTQVTVSS
 | binds | 132-D3 (VHH, not shown: C-terminal c-myc tag and (His)6 tag coded by the vector) VHH: VQLVESGGGLVQAGGSLRLSCVASGTSFSVGAAGWYRQAPGKQRDLVAEIYPSGSTIYADSVKGRFTISRDNAKNTVYLQMNALKPEDTAVYYCNVVRWGVDYWGQGTQVTVSS
 | binds | 132-G5 (VHH, not shown: C-terminal c-myc tag and (His)6 tag coded by the vector) VHH: EVQLVESGGGLVQPGGSLRLSCAASGSILSIHYMGWFRQAPGKQRELVAGIPTGGTTNYADSVKGRFTMSRDNAKNTVDLQMNTMKPEDTAVYYCNAWISSERESRWLNYWGQGTQVTVSS
 | binds | 132-B5 (VHH, not shown: C-terminal c-myc tag and (His)6 tag coded by the vector) VHH: EVQLVESGGGLVQAGGSLRLSCVASGLVSSYYGMGWFRQAPGKEREFVASVNWSGKDTYYGDSVKGRFAVSRDSGKNTGFLQMNSLKSEDTAVYYCARRRGGGTGTGNPSEYDYWGQGTQVTVSS
binds |  | 132-A12 (VHH, not shown: C-terminal c-myc tag and (His)6 tag coded by the vector) VHH: EVQLVESGGGLVQAGGSLRLSCAASGRNFRRNSMGWYRLTSGKQREMVARISNGGTTVYADSVKGRFTISRDNAKNTVYLQMNSLKFEDTAVYYCNAGDYTDSMYWGQGTQVTVSS
 | binds | 132-B3 (VHH, not shown: C-terminal c-myc tag and (His)6 tag coded by the vector) VHH: EVQLVESGGGLVQAGGSLRLSCVASGSPFSIGATGWYRQAPGKQRDLVAEIYPSGDTIYADSVKGRSTISRDNAKNTVYLQMNSLKPEDTAVYFCNVVRWGVDYWGQGTQVTVSS
 | binds | 132-H4 (VHH, not shown: C-terminal c-myc tag and (His)6 tag coded by the vector) VHH: EVQLVESGGGLVQAGGSLRLSCVASGTSIMVGAMGWYRQAPGKQRDLVAEIYPSGSTIYEDSVKGRFTISRDNAKNTVYLQMNSLKPEDTAVYYCNVLRWGVDYWGQGTQVTVSS
 | binds | 132-D1 (VHH, not shown: C-terminal c-myc tag and (His)6 tag coded by the vector) VHH: EVQLVESGGGLVQAGGSLRLSCVASGTSFSIGAAGWYRQAPGKQRDLLAEIYPSGSTIYADSVKGRFTISRDNAKNTVYLQMNALKPEDTAVYYCNAVRWGVDYWGQGTQVTVSS
 | binds | 132-E5 (VHH, not shown: C-terminal c-myc tag and (His)6 tag coded by the vector) VHH: EVQLVESGGGLVQAGGSLRLSCVVSGSSFSVGAAGWYRQAPGKQRDLVAEIYPSGSTSYADSVKGRFTISRDNAKNIMYLQMNALKLEDTAVYYCNVVRWGVDYWGQGTQVTVSS
 | binds | 132-B1 (VHH, not shown: C-terminal c-myc tag and (His)6 tag coded by the vector) VHH: EVQLVESGGGLVQAGGSLRLSCVASGSPFSIGATGWYRQAPGKQRDLVAEIYPSGDTIYADSVKGRSTISRDNAKNTVYLQMNSMKPEDTAVYFCNVVRWGVDYWGQGTQVTVSS
